Laboratory results reported in patent US20240115722A1 (RUTGERS THE STATE UNIVERSITY OF NEW JERSEY, published 2024).

Molecular target: T1, recombinant human EphA5 (rhEphA5) antigen (human, UniProt P54756 25-573)
T1 construct: also called human EphA5 (R and D systems, Cat. No. 3036-A5); recombinant EphA5
Assay: SPR single-cycle kinetics (Biacore T200), IgG from HEK supernatant captured on anti-human IgG CM5 chip, rhEphA5 as analyte, 1:1 fit
Set-up: Relative KD: reference not given here
Protocol: Kinetic analysis was carried out on a Biacore T200. Each antibody was captured on a CM5 chip coupled with an anti-human IgG using standard amine chemistry before increasing concentrations of antigen were injected and a single off-rate was determined.
Kinetic experiments were performed at 25° C. on a Biacore T200 running Biacore T200 Control software V2.0.1 and Evaluation software V3.0 (Cytiva, Uppsala, Sweden).
HBS-P+ (Cytiva, Uppsala, Sweden), supplemented with 1% BSA (Sigma, Dorset, UK) was used as running buffer as well as for ligand and analyte dilutions. Supernatants containing IgG were diluted in running buffer to 1 μg/mL. At the start of each cycle, antibodies were loaded onto Fc2, Fc3 and Fc4 of an anti-human IgG CM5 sensor chip (Cytiva, Little Chalfont, UK). Ig were captured at a flow rate of […] to give an immobilization level (RL) of ˜60 RU. The surface was then allowed to stabilize.

T1 sequence (P54756 25-573 limits assumed): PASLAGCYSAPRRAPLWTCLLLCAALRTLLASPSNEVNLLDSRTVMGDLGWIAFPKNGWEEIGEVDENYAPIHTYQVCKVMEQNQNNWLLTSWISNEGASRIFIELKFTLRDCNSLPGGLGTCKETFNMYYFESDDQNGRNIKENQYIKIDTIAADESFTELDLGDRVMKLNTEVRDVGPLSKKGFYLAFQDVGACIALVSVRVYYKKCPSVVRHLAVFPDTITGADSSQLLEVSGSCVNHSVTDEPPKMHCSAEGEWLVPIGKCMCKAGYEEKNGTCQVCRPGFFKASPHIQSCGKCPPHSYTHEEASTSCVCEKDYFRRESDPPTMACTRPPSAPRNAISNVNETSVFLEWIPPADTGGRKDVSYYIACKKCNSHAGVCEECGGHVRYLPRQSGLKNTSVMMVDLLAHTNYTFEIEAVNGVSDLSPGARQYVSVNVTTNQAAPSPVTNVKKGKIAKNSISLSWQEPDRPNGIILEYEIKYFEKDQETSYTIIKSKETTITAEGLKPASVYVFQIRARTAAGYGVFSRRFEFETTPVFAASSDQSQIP

B1: VH3/VK2 humanized 11C12 antibody (antibody, human IgG1, kappa)
heavy: not shown
light: DIVMTQSPDSLAVSLGERATINCKASQSVDYDGDSYMNWYQQKPGKAPKLLIYGASNLESGIPDRFSGSGSGTDFTLTISRLEPEDAASYYCQQSNEDPFTFGQGTKLEIKRTVAAPSVFIFPPSDEQLKSGTASVVCLLNNFYPREAKVQWKVDNALQSGNSQESVTEQDSKDSTYSLSSTLTLSKADYEKHKVYACEVTHQGLSSPVTKSFNRGEC
notes: Human IgG1/kappa; tested as HEK293 EBNA supernatant; also called H3K2
  Kd: 968 pM
  Relative KD: 0.73
  koff: 0.0013 s⁻¹

B2: VH4/VK2 humanized 11C12 antibody (antibody, human IgG1, kappa, V domains shown)
VH: EVQLVESGGGLVQPGGSLKLSCAASGFTFSTFGIHWVRQAPGKGLEWVAYISGASTTIYYADTVKGRFTISRDNSKNTLYLQMNSLRAEDTAVYYCARYGTSFPYGLDYWGQGTLVTVSS
VL: DIVMTQSPDSLAVSLGERATINCKASQSVDYDGDSYMNWYQQKPGKAPKLLIYGASNLESGIPDRFSGSGSGTDFTLTISRLEPEDAASYYCQQSNEDPFTFGQGTKLEIKR
notes: Human IgG1/kappa; tested as HEK293 EBNA supernatant; also called H4K2
  Kd: 854 pM
  Relative KD: 0.64
  koff: 0.00114 s⁻¹

B3: VH3/VK1 humanized 11C12 antibody (antibody, human IgG1, kappa)
heavy: not shown
light: DIVMTQSPGSLAVSLGERATINCKASQSVDYDGDSYMNWYQQKPGKAPKLLIYGASNLESGIPDRFSGSGSGTDFTLTISRLEEEDAASYYCQQSNEDPFTFGQGTKLEIKRTVAAPSVFIFPPSDEQLKSGTASVVCLLNNFYPREAKVQWKVDNALQSGNSQESVTEQDSKDSTYSLSSTLTLSKADYEKHKVYACEVTHQGLSSPVTKSFNRGEC
notes: Human IgG1/kappa; tested as HEK293 EBNA supernatant; also called H3K1
  Kd: 884 pM
  Relative KD: 0.66
  koff: 0.00123 s⁻¹

B4: VH2/VK2 humanized 11C12 antibody (antibody, human IgG1, kappa)
heavy: not shown
light: DIVMTQSPDSLAVSLGERATINCKASQSVDYDGDSYMNWYQQKPGKAPKLLIYGASNLESGIPDRFSGSGSGTDFTLTISRLEPEDAASYYCQQSNEDPFTFGQGTKLEIKRTVAAPSVFIFPPSDEQLKSGTASVVCLLNNFYPREAKVQWKVDNALQSGNSQESVTEQDSKDSTYSLSSTLTLSKADYEKHKVYACEVTHQGLSSPVTKSFNRGEC
notes: Human IgG1/kappa; tested as HEK293 EBNA supernatant; also called H2K2
  Kd: 971 pM
  Relative KD: 0.73
  koff: 0.00126 s⁻¹

B5: VH2/VK1 humanized 11C12 antibody (antibody, human IgG1, kappa)
heavy: not shown
light: DIVMTQSPGSLAVSLGERATINCKASQSVDYDGDSYMNWYQQKPGKAPKLLIYGASNLESGIPDRFSGSGSGTDFTLTISRLEEEDAASYYCQQSNEDPFTFGQGTKLEIKRTVAAPSVFIFPPSDEQLKSGTASVVCLLNNFYPREAKVQWKVDNALQSGNSQESVTEQDSKDSTYSLSSTLTLSKADYEKHKVYACEVTHQGLSSPVTKSFNRGEC
notes: Human IgG1/kappa; tested as HEK293 EBNA supernatant; also called H2K1
  Kd: 890 pM
  Relative KD: 0.67
  koff: 0.0012 s⁻¹

B6: VH2/VK5 humanized 11C12 antibody (antibody, human IgG1, kappa)
heavy: not shown
light: DIVMTQSPDSLAVSLGERATINCKSSQSVDYDGDSYMNWYQQKPGKAPKLLIYGASNLESGIPDRFSGSGSGTDFTLTISRLEPEDAAVYYCQQSNEDPFTFGQGTKLEIKRTVAAPSVFIFPPSDEQLKSGTASVVCLLNNFYPREAKVQWKVDNALQSGNSQESVTEQDSKDSTYSLSSTLTLSKADYEKHKVYACEVTHQGLSSPVTKSFNRGEC
notes: Human IgG1/kappa; tested as HEK293 EBNA supernatant; also called H2K5
  Kd: 1050 pM
  Relative KD: 0.79
  koff: 0.0014 s⁻¹

B7: VH2/VK3 humanized 11C12 antibody (antibody, human IgG1, kappa)
heavy: not shown
light: DIVMTQSPDSLAVSLGERATINCKASQSVDYDGDSYMNWYQQKPGKAPKLLIYGASNLESGIPDRFSGSGSGTDFTLTISRLEPEDAAVYYCQQSNEDPFTFGQGTKLEIKRTVAAPSVFIFPPSDEQLKSGTASVVCLLNNFYPREAKVQWKVDNALQSGNSQESVTEQDSKDSTYSLSSTLTLSKADYEKHKVYACEVTHQGLSSPVTKSFNRGEC
notes: Human IgG1/kappa; tested as HEK293 EBNA supernatant; also called H2K3
  Kd: 985 pM
  Relative KD: 0.74
  koff: 0.00132 s⁻¹

B8: VH4/VK1 humanized 11C12 antibody (antibody, human IgG1, kappa, V domains shown)
VH: EVQLVESGGGLVQPGGSLKLSCAASGFTFSTFGIHWVRQAPGKGLEWVAYISGASTTIYYADTVKGRFTISRDNSKNTLYLQMNSLRAEDTAVYYCARYGTSFPYGLDYWGQGTLVTVSS
VL: DIVMTQSPGSLAVSLGERATINCKASQSVDYDGDSYMNWYQQKPGKAPKLLIYGASNLESGIPDRFSGSGSGTDFTLTISRLEEEDAASYYCQQSNEDPFTFGQGTKLEIKR
notes: Human IgG1/kappa; tested as HEK293 EBNA supernatant; also called H4K1
  Kd: 975 pM
  Relative KD: 0.73
  koff: 0.00129 s⁻¹

B9: VH1/VK3 humanized 11C12 antibody (antibody, human IgG1, kappa)
heavy: not shown
light: DIVMTQSPDSLAVSLGERATINCKASQSVDYDGDSYMNWYQQKPGKAPKLLIYGASNLESGIPDRFSGSGSGTDFTLTISRLEPEDAAVYYCQQSNEDPFTFGQGTKLEIKRTVAAPSVFIFPPSDEQLKSGTASVVCLLNNFYPREAKVQWKVDNALQSGNSQESVTEQDSKDSTYSLSSTLTLSKADYEKHKVYACEVTHQGLSSPVTKSFNRGEC
notes: Human IgG1/kappa; tested as HEK293 EBNA supernatant; also called H1K3
  Kd: 948 pM
  Relative KD: 0.71
  koff: 0.00125 s⁻¹

B10: VH0/VK1 (antibody, human IgG1, kappa, V domains shown)
VH: EVTLKESGGGLVQPGGSRKLSCAASGFTFSTFGIHWVRQAPEKGLEWVAYISGASTTIYYADTVKGRFTISRDNPKNTLFLQMTSLRSEDTAMYYCARYGTSFPYGLDYWGQGTSVTVSS
VL: DIVMTQSPGSLAVSLGERATINCKASQSVDYDGDSYMNWYQQKPGKAPKLLIYGASNLESGIPDRFSGSGSGTDFTLTISRLEEEDAASYYCQQSNEDPFTFGQGTKLEIKR
notes: tested as HEK supernatant; also called control antibody (chimeric heavy chain with humanized VK1 light chain)
  Kd: 1120 pM
  Relative KD: 0.84
  koff: 0.00137 s⁻¹

B11: VH3/VK5 humanized 11C12 antibody (antibody, human IgG1, kappa)
heavy: not shown
light: DIVMTQSPDSLAVSLGERATINCKSSQSVDYDGDSYMNWYQQKPGKAPKLLIYGASNLESGIPDRFSGSGSGTDFTLTISRLEPEDAAVYYCQQSNEDPFTFGQGTKLEIKRTVAAPSVFIFPPSDEQLKSGTASVVCLLNNFYPREAKVQWKVDNALQSGNSQESVTEQDSKDSTYSLSSTLTLSKADYEKHKVYACEVTHQGLSSPVTKSFNRGEC
notes: Human IgG1/kappa; tested as HEK293 EBNA supernatant; also called H3K5
  Kd: 1100 pM
  Relative KD: 0.83
  koff: 0.00143 s⁻¹

B12: VH1/VK5 humanized 11C12 antibody (antibody, human IgG1, kappa)
heavy: not shown
light: DIVMTQSPDSLAVSLGERATINCKSSQSVDYDGDSYMNWYQQKPGKAPKLLIYGASNLESGIPDRFSGSGSGTDFTLTISRLEPEDAAVYYCQQSNEDPFTFGQGTKLEIKRTVAAPSVFIFPPSDEQLKSGTASVVCLLNNFYPREAKVQWKVDNALQSGNSQESVTEQDSKDSTYSLSSTLTLSKADYEKHKVYACEVTHQGLSSPVTKSFNRGEC
notes: Human IgG1/kappa; tested as HEK293 EBNA supernatant; also called H1K5
  Kd: 1120 pM
  Relative KD: 0.84
  koff: 0.00139 s⁻¹

B13: VH1/VK2 humanized 11C12 antibody (antibody, human IgG1, kappa)
heavy: not shown
light: DIVMTQSPDSLAVSLGERATINCKASQSVDYDGDSYMNWYQQKPGKAPKLLIYGASNLESGIPDRFSGSGSGTDFTLTISRLEPEDAASYYCQQSNEDPFTFGQGTKLEIKRTVAAPSVFIFPPSDEQLKSGTASVVCLLNNFYPREAKVQWKVDNALQSGNSQESVTEQDSKDSTYSLSSTLTLSKADYEKHKVYACEVTHQGLSSPVTKSFNRGEC
notes: Human IgG1/kappa; tested as HEK293 EBNA supernatant; also called H1K2
  Kd: 968 pM
  Relative KD: 0.73
  koff: 0.00126 s⁻¹

B14: VH4/VK5 humanized 11C12 antibody (antibody, human IgG1, kappa, V domains shown)
VH: EVQLVESGGGLVQPGGSLKLSCAASGFTFSTFGIHWVRQAPGKGLEWVAYISGASTTIYYADTVKGRFTISRDNSKNTLYLQMNSLRAEDTAVYYCARYGTSFPYGLDYWGQGTLVTVSS
VL: DIVMTQSPDSLAVSLGERATINCKSSQSVDYDGDSYMNWYQQKPGKAPKLLIYGASNLESGIPDRFSGSGSGTDFTLTISRLEPEDAAVYYCQQSNEDPFTFGQGTKLEIKR
notes: Human IgG1/kappa; tested as HEK293 EBNA supernatant; also called H4K5
  Kd: 996 pM
  Relative KD: 0.75
  koff: 0.00137 s⁻¹

B15: VH3/VK3 humanized 11C12 antibody (antibody, human IgG1, kappa)
heavy: not shown
light: DIVMTQSPDSLAVSLGERATINCKASQSVDYDGDSYMNWYQQKPGKAPKLLIYGASNLESGIPDRFSGSGSGTDFTLTISRLEPEDAAVYYCQQSNEDPFTFGQGTKLEIKRTVAAPSVFIFPPSDEQLKSGTASVVCLLNNFYPREAKVQWKVDNALQSGNSQESVTEQDSKDSTYSLSSTLTLSKADYEKHKVYACEVTHQGLSSPVTKSFNRGEC
notes: Human IgG1/kappa; tested as HEK293 EBNA supernatant; also called H3K3
  Kd: 1010 pM
  Relative KD: 0.76
  koff: 0.00133 s⁻¹

B16: VH1/VK1 humanized 11C12 antibody (antibody, human IgG1, kappa)
heavy: not shown
light: DIVMTQSPGSLAVSLGERATINCKASQSVDYDGDSYMNWYQQKPGKAPKLLIYGASNLESGIPDRFSGSGSGTDFTLTISRLEEEDAASYYCQQSNEDPFTFGQGTKLEIKRTVAAPSVFIFPPSDEQLKSGTASVVCLLNNFYPREAKVQWKVDNALQSGNSQESVTEQDSKDSTYSLSSTLTLSKADYEKHKVYACEVTHQGLSSPVTKSFNRGEC
notes: Human IgG1/kappa; tested as HEK293 EBNA supernatant; also called H1K1
  Kd: 1020 pM
  Relative KD: 0.77
  koff: 0.00128 s⁻¹

B17: VH2/VK4 humanized 11C12 antibody (antibody, human IgG1, kappa)
heavy: not shown
light: DIVMTQSPDSLAVSLGERATINCKSSQSVDYDGDSYMNWYQQKPGKAPKLLIYGASNLESGIPDRFSGSGSGTDFTLTISRLEPEDAASYYCQQSNEDPFTFGQGTKLEIKRTVAAPSVFIFPPSDEQLKSGTASVVCLLNNFYPREAKVQWKVDNALQSGNSQESVTEQDSKDSTYSLSSTLTLSKADYEKHKVYACEVTHQGLSSPVTKSFNRGEC
notes: Human IgG1/kappa; tested as HEK293 EBNA supernatant; also called H2K4
  Kd: 917 pM
  Relative KD: 0.69
  koff: 0.00126 s⁻¹

B18: VH1/VK4 humanized 11C12 antibody (antibody, human IgG1, kappa)
heavy: not shown
light: DIVMTQSPDSLAVSLGERATINCKSSQSVDYDGDSYMNWYQQKPGKAPKLLIYGASNLESGIPDRFSGSGSGTDFTLTISRLEPEDAASYYCQQSNEDPFTFGQGTKLEIKRTVAAPSVFIFPPSDEQLKSGTASVVCLLNNFYPREAKVQWKVDNALQSGNSQESVTEQDSKDSTYSLSSTLTLSKADYEKHKVYACEVTHQGLSSPVTKSFNRGEC
notes: Human IgG1/kappa; tested as HEK293 EBNA supernatant; also called H1K4
  Kd: 1100 pM
  Relative KD: 0.83
  koff: 0.00137 s⁻¹
